Assay results: US20160311887A1 (CAMBRIDGE ENTERPRISE, published 2016)
Numbering of substitutions follows the chain as printed. Names and notes keep the numbering of the source.

B1: FL α1AT Pitts C232S P2TP1′N (other)
chain: SDPQGDAAQKTDTSHHDQDHPTFNKITPNLAEFAFSLYRQLAHQSNSTNIFFSPVSIATAFAMLSLGTKADTHDEILEGLNFNLTEIPEAQIHEGFQELLRTLNQPDSQLQLTTGNGLFLSEGLKLVDKFLEDVKKLYHSEAFTVNFGDTEEAKKQINDYVEKGTQGKIVDLVKELDRDTVFALVNYIFFKGKWERPFEVKDTEEEDFHVDQVTTVKVPMMKRLGMFNIQHSKKLSSWVLLMKYLGNATAIFFLPDEGKLQHLENELTHDIITKFLENEDRRSASLHLPKLSITGTYDLKSVLGQLGITKVFSNGADLSGVTEEAPLKLSKAVHKAVLTIDEKGTEAAGAMFLEAITRNIPPEVKFNKPFVFLMIEQNTKSPLFMGKVVNPTQK
notes: E. coli, purified; also called 4.G9
B2: FL α1AT Pitts C232S P2TP1′Y (other)
chain: B1 chain with N359Y
notes: E. coli, purified; also called 3.A10
B3: FL α1AT Pitts C232S P2R (other)
chain: B1 chain with T357R, N359S
notes: E. coli, purified; also called P2.F10; P2.G8
B4: FL α1AT Pitts C232S P1′R (other)
chain: B1 chain with T357P, N359R
notes: E. coli, purified; also called P1′.A11
B5: FL α1AT Pitts C232S P1′E (other)
chain: B1 chain with T357P, N359E
notes: E. coli, purified; also called P1′.H8; P1′.F10
B6: FL α1AT Pitts C232S P2QP1′K (other)
chain: B1 chain with T357Q, N359K
notes: E. coli, purified; also called 4.G4
B7: FL α1AT Pitts C232S P2KP1′N (other)
chain: B1 chain with T357K
notes: E. coli, purified; also called 3.B2; 2.H5
B8: FL α1AT Pitts C232S P2RP1′C (other)
chain: B1 chain with T357R, N359C
notes: E. coli, purified; also called 1.B11
B9: A22 2.B10 PCI (P4SP2LP1′K) (other)
chain: APSSRRDFTFDLYRALASAAPSQNIFFSPVSISMSLAMLSLGAGSSTKMQILEGLGLNLQKSSEKELHRGFQQLLQELNQPRDGFQLSLGNALFTDLVVDLQDTFVSAMKTLYLADTFPTNFRDSAGAMKQINDYVAKQTKGKIVDLLKNLDSNAVVIMVNYIFFKAKWETSFNHKGTQEQDFYVTSETVVRVPMMSREDQYHYLLDRNLSCRVVGVPYQGNATALFILPSEGKMQQVENGLSEKTLRKWLKMFKKRQLELYLPKFSIEGSYQLEKVLPSLGISNVFTSHADLSGISNHSNIQVSEMVHKAVVEVDESGTRAAAATGTISTLRKARLNSQRLVFNRPFLMFIVDNNILFLGKVNRP
notes: As A22 WT PCI
B10: A22 D8 PCI (P4QP2RP1′N) (other)
chain: B9 chain with S330Q, L332R, K334N
notes: As A22 WT PCI
B11: A22 4.H11 PCI (P4KP2RP1′H) (other)
chain: B9 chain with S330K, L332R, K334H
notes: As A22 WT PCI
B12: A22 5.E12 PCI (P4HP2RP1′V) (other)
chain: B9 chain with S330H, L332R, K334V
notes: As A22 WT PCI
B13: FL α1AT Pitts C232S P2KP1′H (other)
chain: B1 chain with T357K, N359H
notes: E. coli, purified; also called 1.A12
B14: FL α1AT Pitts C232S P2K (other)
chain: B1 chain with T357K, N359S
notes: E. coli, SUMO tag removed; also called P2K α1AT Pitts; P2.G11
B15: FL α1AT Pitts C232S P1′K (other)
chain: B1 chain with T357P, N359K
notes: E. coli, SUMO tag removed; also called P1′K α1AT Pitts; P1′.F9
B16: α1AT Pitts (P1R) mutant P2RP1′A (other)
chain: B1 chain with T357R, N359A
notes: also called 3.E5
B17: α1AT Pitts (P1R) mutant P2WP1′H (other)
chain: B1 chain with T357W, N359H

Each binder was assayed against T1, activated Protein C (APC) (human, UniProt P04070 43-197; P04070 212-461) (assay: ratio of rate constants, APC over thrombin).
T1 construct: also called human plasma APC
T1 sequence (P04070 43-197, chain 1 of 2): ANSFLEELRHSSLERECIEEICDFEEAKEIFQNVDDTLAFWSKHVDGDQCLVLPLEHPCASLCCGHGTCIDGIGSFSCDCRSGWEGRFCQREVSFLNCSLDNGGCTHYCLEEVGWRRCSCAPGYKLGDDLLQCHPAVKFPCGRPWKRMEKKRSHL
T1 sequence (P04070 212-461, chain 2 of 2): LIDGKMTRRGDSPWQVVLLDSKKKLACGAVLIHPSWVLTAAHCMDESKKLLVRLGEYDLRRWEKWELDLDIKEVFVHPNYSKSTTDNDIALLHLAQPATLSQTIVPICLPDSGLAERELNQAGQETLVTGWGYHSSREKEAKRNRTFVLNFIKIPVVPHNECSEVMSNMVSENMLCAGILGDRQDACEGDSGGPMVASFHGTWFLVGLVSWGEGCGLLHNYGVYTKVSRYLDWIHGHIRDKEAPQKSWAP

Row | inhibition of APC/thrombin | Binder
1 | 231 fold | B1
2 | 248 fold | B2
3 | 1460 fold | B3
4 | 194 fold | B4
5 | 19.9 fold | B5
6 | 8790 fold | B6
7 | 2520 fold | B7
8 | 722 fold | B8

These binders were tested against T1, activated Protein C (APC) (assay: preliminary pseudo-first-order inhibition kinetics, residual chromogenic activity).
Procedure: (§1) Preliminary second-order rate constants for the inhibition of thrombin and APC by random mutagenesis PCI variants were measured under pseudo first-order conditions using an excess of serpin over protease. Serpin and protease were incubated together for varying lengths of time and the residual activity determined by adding an excess of chromogenic substrate for the protease. Plots of residual protease activity over time gave the observed rate constant kobs. The second-order rate constant, k₂, is the slope of the plot of kobs versus serpin concentration (fitted using a linear regression model). WT and P2KP1′K are shown for comparison. The error shown is the standard error of the slope.

Row | second-order rate constant of inhibition | Binder
9 | 430 M⁻¹ s⁻¹ | B9
10 | 1000 M⁻¹ s⁻¹ | B10
11 | 450 M⁻¹ s⁻¹ | B11
12 | 260 M⁻¹ s⁻¹ | B12

What follows are binders tested against T2, thrombin (UniProt P00734 328-622) in the same assay as above.
Procedure: as §1

Row | second-order rate constant of inhibition | Binder
13 | 16 M⁻¹ s⁻¹ | B9
14 | 84 M⁻¹ s⁻¹ | B10
15 | 21 M⁻¹ s⁻¹ | B11
16 | 23 M⁻¹ s⁻¹ | B12

The binders below were run against T1, activated Protein C (APC) (assay: pseudo-first-order inhibition kinetics, residual chromogenic activity).

Row | second-order rate constant of inhibition | Binder
17 | 62400 M⁻¹ s⁻¹ | B1
18 | 5700 M⁻¹ s⁻¹ | B2
19 | 61100 M⁻¹ s⁻¹ | B3
20 | 132000 M⁻¹ s⁻¹ | B4
21 | 2990 M⁻¹ s⁻¹ | B5
22 | 28800 M⁻¹ s⁻¹ | B13
23 | 33400 M⁻¹ s⁻¹ | B6
24 | 37800 M⁻¹ s⁻¹ | B7
25 | 24600 M⁻¹ s⁻¹ | B8

These binders were tested against T2, thrombin in the same assay as above.

Row | second-order rate constant of inhibition | Binder
26 | 270 M⁻¹ s⁻¹ | B1
27 | 23 M⁻¹ s⁻¹ | B2
28 | 42 M⁻¹ s⁻¹ | B3
29 | 680 M⁻¹ s⁻¹ | B4
30 | 150 M⁻¹ s⁻¹ | B5
31 | 3.8 M⁻¹ s⁻¹ | B6
32 | 15 M⁻¹ s⁻¹ | B7
33 | 34 M⁻¹ s⁻¹ | B8

What follows are binders tested against T3, fXa (UniProt P00742 41-179; P00742 235-488) (assay: pseudo-first-order inhibition kinetics, residual chromogenic activity (S2222)).
T3 construct: also called factor Xa
T3 sequence (P00742 41-179 limits assumed, form in doubt, chain 1 of 2): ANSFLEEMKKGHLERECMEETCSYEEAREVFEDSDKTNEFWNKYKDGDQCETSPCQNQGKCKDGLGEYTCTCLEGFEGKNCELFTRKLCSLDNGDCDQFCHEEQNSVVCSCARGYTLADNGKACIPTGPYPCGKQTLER
T3 sequence (P00742 235-488 limits assumed, form in doubt, chain 2 of 2): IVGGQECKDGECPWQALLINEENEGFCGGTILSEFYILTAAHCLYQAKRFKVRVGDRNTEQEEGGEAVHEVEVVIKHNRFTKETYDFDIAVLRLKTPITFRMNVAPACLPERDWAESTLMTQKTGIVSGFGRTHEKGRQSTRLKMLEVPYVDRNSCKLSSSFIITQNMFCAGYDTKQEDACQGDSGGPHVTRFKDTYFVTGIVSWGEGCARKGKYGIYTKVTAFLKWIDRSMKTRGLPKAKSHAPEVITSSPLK

Row | second-order rate constant of inhibition | Binder
34 | 4790 M⁻¹ s⁻¹ | B3
35 | 620 M⁻¹ s⁻¹ | B13
36 | 1080 M⁻¹ s⁻¹ | B6
37 | 910 M⁻¹ s⁻¹ | B7

The binders below were run against TF:fVIIa (UniProt P13726 33-295; P08709 61-466, limits assumed) (assay: cell-based or functional assay).
Sequence of TF:fVIIa (P13726 33-295 limits assumed, chain 1 of 2): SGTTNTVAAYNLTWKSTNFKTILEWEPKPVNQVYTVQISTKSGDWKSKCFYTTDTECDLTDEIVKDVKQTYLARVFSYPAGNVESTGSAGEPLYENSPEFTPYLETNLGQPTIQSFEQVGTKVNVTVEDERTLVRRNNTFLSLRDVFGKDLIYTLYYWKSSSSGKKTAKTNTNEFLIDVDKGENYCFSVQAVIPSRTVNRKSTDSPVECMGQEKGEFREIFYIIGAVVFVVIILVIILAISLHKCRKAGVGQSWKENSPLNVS
Sequence of TF:fVIIa (P08709 61-466 limits assumed, chain 2 of 2): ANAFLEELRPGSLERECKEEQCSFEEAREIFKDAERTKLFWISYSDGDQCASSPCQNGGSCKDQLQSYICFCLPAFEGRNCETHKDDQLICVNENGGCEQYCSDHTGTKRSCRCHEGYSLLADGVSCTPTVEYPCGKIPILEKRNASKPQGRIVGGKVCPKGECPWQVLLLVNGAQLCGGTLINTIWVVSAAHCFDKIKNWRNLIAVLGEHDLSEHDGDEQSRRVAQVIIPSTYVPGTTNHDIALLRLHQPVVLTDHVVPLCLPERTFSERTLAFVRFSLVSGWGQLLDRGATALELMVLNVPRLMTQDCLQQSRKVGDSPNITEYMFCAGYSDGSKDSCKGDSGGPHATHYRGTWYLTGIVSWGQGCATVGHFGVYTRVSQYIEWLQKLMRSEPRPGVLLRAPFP

Row | PT (s), 5 µM serpin | Binder
38 | 27.8 s | B3
39 | 27.4 s | B13
40 | 27.9 s | B6
41 | 27.8 s | B7

Target: T1, activated Protein C (APC)
Experiment: ratio of rate constants, APC over thrombin
Remark: another data set of the same source
Procedure: Standard errors are shown.
as §1

Row | inhibition of APC/thrombin | Binder
42 | 26.9 fold | B9
43 | 11.9 fold | B10
44 | 21.4 fold | B11
45 | 11.3 fold | B12

Target: T1, activated Protein C (APC)
Experiment: ratio of rate constants, APC over thrombin
Remark: another data set of the same source
Procedure: (§2) Rate constants of thrombin and APC inhibition were measured under pseudo-first-order conditions using an excess of serpin over protease (Table 1). Serpin and protease were incubated together for varying lengths of time and the residual activity was determined by adding an excess of chromogenic substrate for the protease (S2238 for thrombin and […] for APC). Residual protease activity was then measured by following the absorbance at 405 nm. Plots of residual protease activity over time gave the observed rate constant kobs. The second-order rate constant, ₖ₂, is the slope of the plot of kobs versus serpin concentration (fitted using a linear regression model). Standard errors of the slope are shown.

Row | fold inhibition APC/thrombin | Binder
46 | 1270 fold | B14
47 | 563 fold | B15

What follows are binders tested against T3, fXa (assay: single-concentration estimate (FIG. 15)).
Procedure: 1 μM serpin was incubated with 12.5 nM protease for different amounts of time. At the indicated timepoints, the reaction was stopped by addition of an excess of chromogenic substrate (S2238 for thrombin, S2222 for fXa). The residual enzyme activity was divided by the initial enzyme activity and the natural log of this value plotted against time. The slope of these plots is the observed rate constant, kobs. To obtain an estimate of the second-order rate constant k₂, kobs was divided by the serpin concentration. […] The mutants shown all have the Pitts (M358R, P1R) mutation.
Four additional mutants were identified from this additional screen. These all had the P1R mutation and in addition had either P2RP1′A, P2RP1′Q, P2WP1′I or P2WP1′H. To verify the specificity of these mutants, an initial experiment was performed, using only one concentration of serpin and testing its inhibition of thrombin and fXa. APC inhibition was not considered at this stage, because mutants were selected based on their low inhibition of thrombin and fXa. Serpin and protease were incubated for different times and at the indicated timepoints, the reaction was stopped by addition of an excess of chromogenic substrate. Residual protease activity was divided by the initial protease activity and the natural log of this value plotted against time (FIG. 15). The slope of this line divided by the serpin concentration gives an estimate of the second-order rate constant of inhibition.

Row | fold reduction of the second-order rate constant compared to FL α1AT Pitts C232S | Binder
48 | ~10 fold | B16
49 | ~10 fold | B17

Target: T3, fXa
Experiment: pseudo-first-order inhibition kinetics, residual chromogenic activity (S2222)
Remark: another data set of the same source
Procedure: (§3) The inhibition of APC was reduced but still considerable, especially for the variants of α₁AT and the PCI variants in the presence of heparin. However, the specificity of PCI and α₁AT Pitts is not limited to thrombin and APC. […] In order not to inhibit coagulation, our variants also need to be specific for APC over fXa. We therefore also determined the rate constants of inhibition of PCI and α₁AT and their variants for fXa (Table 3). Rate constants were measured under pseudo-first-order conditions using an excess of serpin over protease. Serpin and protease were incubated together for varying lengths of time and the residual activity determined by adding an excess of chromogenic substrate (S2222) for the protease. Plots of residual protease activity over time gave the observed rate constant kobs. The second-order rate constant, k₂, is the slope of the plot of kobs versus serpin concentration (fitted using a linear regression model). Standard errors of the slope are shown (Table 3).

Row | second-order rate constant of inhibition | Binder
50 | 3930 M⁻¹ s⁻¹ | B14
51 | 4890 M⁻¹ s⁻¹ | B15

These binders were tested against T1, activated Protein C (APC) (assay: ratio of rate constants, APC over fXa).

Row | inhibition of APC/fXa | Binder
52 | 12.8 fold | B3
53 | 46.5 fold | B13
54 | 30.9 fold | B6
55 | 41.5 fold | B7

Target: T1, activated Protein C (APC)
Experiment: pseudo-first-order inhibition kinetics, residual chromogenic activity
Remark: another data set of the same source
Procedure: as §2

Row | second-order rate constant of inhibition | Binder
56 | 64800 M⁻¹ s⁻¹ | B14
57 | 95700 M⁻¹ s⁻¹ | B15

Target: T2, thrombin
Experiment: as above
Remark: another data set of the same source
Procedure: as §2

Row | second-order rate constant of inhibition | Binder
58 | 51 M⁻¹ s⁻¹ | B14
59 | 170 M⁻¹ s⁻¹ | B15

Target: T1, activated Protein C (APC)
Experiment: ratio of rate constants, APC over fXa
Remark: another data set of the same source
Procedure: as §3

Row | fold inhibition APC/fXa | Binder
60 | 16.5 fold | B14
61 | 19.6 fold | B15
